Here are results for twelve molecules from patent publication US20020062500A1, “Hypersensitive response eliciting domains and use thereof” (priority 2000, published 2002).

Ends that are not written are not given here. Peptide text beside a SMILES is read from it.

Series [1] is described as follows: Solubility of expressed or synthesized polypeptides. It counts as physicochemical. The method, then:
For proteins expressed in E. coli that were difficult to dissolve in water, total cells were resuspended and sonicated in 8 M urea buffer (0. IM Na-phosphate, 10 mM Tris buffer, pH8.0). The total cell lysate was centrifuged, and supernatants were collected. Ni-agarose was added into the supernatants and mixed gently at room temperature for 30 min. The Ni-agarose resin was washed with buffer (8 M urea, 0.1 M Na-phosphate, 10 mM Tris buffer, pH6.3). The proteins were eluted with elution buffer (8 M urea, 0.1 M EDTA, 0.1 M Na-phosphate, 10 mM Tris buffer, pH 6.3) and dialyzed against buffer (pH 8.5, 10 mM Tris) with stepwise decreased urea. If the proteins still were insoluble in buffer, the solution pH was adjusted to 9 to 11 and sonicated at room temperature for 1 to 5 min.
Chemically synthesized polypeptides were dissolved in 10 mM Tris, pH 6.5 to 11 buffers depending on their solubility.

The test system of series [2] is tobacco leaves (cv. Xanth). The note with it: in vivo.
For series [3] the following is noted: description of known elicitors; cited from earlier work.
For series [4] the following is noted: description of known elicitors; cited from earlier work. The source holds these as a separate data set.
The conditions of series [5]: cited from earlier work; for heat stable (description): description of known elicitors.
A further series has as its system tobacco. To be noted: in vivo; cited from earlier work.
The test system of another series is tomato. Nature of the series: Plant growth enhancement with tomato. It is filed as in vivo. To be noted: 10 μg/ml.
The next series relates to TMV. Kind of series: Percentage of TMV reduction on tobacco leaves. It counts as in vivo.

`CSCC[C@H](NC(=O)[C@H](CCSC)NC(=O)[C@H](CO)NC(=O)[C@H](CCSC)NC(=O)[C@H](CCSC)NC(=O)[C@H](CCSC)NC(=O)[C@H](CCSC)NC(=O)[C@H](CCSC)NC(=O)CNC(=O)[C@@H](NC(=O)[C@H](CC(C)C)NC(=O)[C@H](CC(C)C)NC(=O)CNC(=O)[C@H](C)NC(=O)[C@H](CC(C)C)NC(=O)[C@H](CCC(N)=O)NC(=O)[C@H](CC(N)=O)NC(=O)[C@@H](NC(=O)[C@@H](NC(=O)[C@H](CC(=O)O)NC(=O)[C@H](CC(N)=O)NC(=O)[C@H](CCC(N)=O)NC(=O)[C@H](CC(N)=O)NC(=O)CNC(=O)CNC(=O)CNC(=O)[C@H](CC(C)C)NC(=O)CN)[C@@H](C)O)C(C)C)[C@@H](C)O)C(=O)O` [HrpNEa4370] (H-GLGGGNQNDTVNQLAGLLTGMMMMMSMM-OH; N-terminus and C-terminus assumed): the “Solubility (Source column: Partial soluble)” value in series [1] (Table 4, synthesized peptide, cell wraps over two lines 'Partial' 'soluble') was “Partial”.

With “(NC): Superharpin building block HrpNEa140-180 with his-tag leader (QNDDSTSGTDSTSDSSDPMQQLLKMFSEIMQSLFGDGQDGT; also: His-tag leader; UniProt Q01099 140-180, looked up, fragment)”, the Soluble result in series [1] (Table 7, building blocks with his-tag leader) is “Yes”.

As for “HrpNEa137180: E. coli expressed peptide, amino acids 137-180 of HrpNEa, His-tag fusion (STSQNDDSTSGTDSTSDSSDPMQQLLKMFSEIMQSLFGDGQDGT; also: His-tag fusion; UniProt Q01099 137-180, looked up, fragment)”, in series [2], the “HR activity in tobacco” value is listed as “elicit HR activity” and the “HR* (eliciting concentration)” value was under 5 µg/mL.

Take “HrpNEa140176: Synthesized peptide, amino acids 140-176 of HrpNEa, acidic plus helix units (QNDDSTSGTDSTSDSSDPMQQLLKMFSEIMQSLFGDG; UniProt Q01099 140-176, looked up, fragment)”: in series [2], the “HR activity (eliciting concentration)” value is given as “+ < 5 μg/ml”, the “HR activity in tobacco” value is “full activity of HR” and the “HR* (eliciting concentration)” value was under 5 µg/mL.

Regarding “SEQ. ID. No. 8: Protein encoded by the dspE gene of Erwinia amylovora, about 198 kDa”, the “pI (description)” value in series [3] is on record as 8.98.

“hypersensitive response elicitor polypeptide or protein from Xanthomonas campestris pv. pelargonii: 20 kDa elicitor that includes the amino acid sequence of SEQ. ID. No. 18 (SSQQSPSAGSEQQLDQLLAM; Xanthomonas campestris pv. pelargonii)”: the protease sensitive entry in series [4] is “protease sensitive”. The “heat stable (description)” value in series [5] is recorded as “heat stable”.

B1: HrpNEch: Harpin protein from E. chrysanthemi, subfamily N (protein, listed as Erwinia chrysanthemi)
chain: MQITIKAHIGGDLGVSGLGAQGLKGLNSAASSLGSSVDKLSSTIDKLTSALTSMMFGGALAQGLGASSKGLGMSNQLGQSFGNGAQGASNLLSVPKSGGDALSKMFDKALDDLLGHDTVTKLTNQSNQLANSMLNASQMTQGNMNAFGSGVNNALSSILGNGLGQSMSGFSQPSLGAGGLQGLSGAGAFNQLGNAIGMGVGQNAALSALSNVSTHVDGNNRHFVDKEDRGMAKEIGQFMDQYPEIFGKPEYQKDGWSSPKTDDKSWAKALSKPDDDGMTGASMDKFRQAMGMIKSAVAGDTGNTNLNLRGAGGASLGIDAAVVGDKIANMSLGKLANA
B1: the “heat stable (description)” value in series [5] is listed as “heat stable”.

B2: 98 residue of N-terminal HrpNEa fragment: Smallest bacterially produced HrpNEa peptide with HR-eliciting activity (Laby 1997) (protein, UniProt Q01099 1-98, looked up, fragment)
chain: MSLNTSGLGASTMQISIGGAGGNNGLLGTSRQNAGLGGNSALGLGGGNQNDTVNQLAGLLTGMMMMMSMMGGGGLMGGGLGGGLGNGLGGSGGLGEGL
Turning to B2, in the series on tobacco, the “HR elicitation (literature)” value is recorded as “displayed HR-eliciting activity”.

B3: HrpWEa: Harpin protein from E. amylovora, subfamily W, 447 amino acids (protein, listed as Erwinia amylovora)
chain: MSILTLNNNTSSSPGLFQSGGDNGLGGHNANSALGQQPIDRQTIEQMAQLLAELLKSLLSPQSGNAATGAGGNDQTTGVGNAGGLNGRKGTAGTTPQSDSQNMLSEMGNNGLDQAITPDGQGGGQIGDNPLLKAMLKLIARMMDGQSDQFGQPGTGNNSASSGTSSSGGSPFNDLSGGKAPSGNSPSGNYSPVSTFSPPSTPTSPTSPLDFPSSPTKAAGGSTPVTDHPDPVGSAGIGAGNSVAFTSAGANQTVLHDTITVKAGQVFDGKGQTFTAGSELGDGGQSENQKPLFILEDGASLKNVTMGDDGADGIHLYGDAKIDNLHVTNVGEDAITVKPNSAGKKSHVEITNSSFEHASDKILQLNADTNLSVDNVKAKDFGTFVRTNGGQQGNWDLNLSHISAEDGKFSFVKSDSEGLNVNTSDISLGDVENHYKVPMSANLKVAE
In the case of B3, in series [4], the protease sensitive entry is on record as “protease sensitive”. Besides, the “heat stable (description)” value in series [5] is “heat stable”.

B4: amino acids 137 to 204 of HrpNEa: HR active fragment of HrpNEa isolated after digestion with protease (protein, UniProt Q01099 137-204, looked up, fragment)
chain: STSQNDDSTSGTDSTSDSSDPMQQLLKMFSEIMQSLFGDGQDGTQGSSSGGKQPTEGEQNAYKKGVTD
Consider B4, for which the “HR elicitation (literature)” value in the series on tobacco is “hypersensitive response active”.

B5: SEQ. ID. No. 10: Protein encoded by the dspF gene, about 16 kDa (protein, listed as Erwinia amylovora)
chain: MTSSQQRVERFLQYFSAGCKTPIHLKDGVCALYNEQDEEAAVLEVPQHSDSLLLHCRIIEADPQTSITLYSMLLQLNFEMAAMRGCWLALDELHNVRLCFQQSLEHLDEASFSDIVSGFIEHAAEVREYIAQLDESSAA
For B5, in series [3], the “pI (description)” value is given as 4.45.

B6: HrpNEa: Harpin hypersensitive response elicitor protein from E. amylovora, 403 amino acids (protein, listed as Erwinia amylovora)
chain: MSLNTSGLGASTMQISIGGAGGNNGLLGTSRQNAGLGGNSALGLGGGNQNDTVNQLAGLLTGMMMMMSMMGGGGLMGGGLGGGLGNGLGGSGGLGEGLSNALNDMLGGSLNTLGSKGGNNTTSTTNSPLDQALGINSTSQNDDSTSGTDSTSDSSDPMQQLLKMFSEIMQSLFGDGQDGTQGSSSGGKQPTEGEQNAYKKGVTDALSGLMGNGLSQLLGNGGLGGGQGGNAGTGLDGSSLGGKGLQNLSGPVDYQQLGNAVGTGIGMKAGIQALNDIGTHRHSSTRSFVNKGDRAMAKEIGQFMDQYPEVFGKPQYQKGPGQEVKTDDKSWAKALSKPDDDGMTPASMEQFNKAKGMIKRPMAGDTGNGNLQARGAGGSSLGIDAMMAGDAINNMALGKLGAA
With B6, the Soluble result in series [1] (Table 8) is “Yes”. The “heat stable at 100° C.” value in series [5] (100° C.) is recorded as “at least 10 minutes”. In the series with tomato, the “% Plant Growth Enhancement” value was found to be 11.68%. For the same molecule, the “Elicit HR” value in series [2] is recorded as 1—3 μg/ml. Besides, in series [3], the “pI (description)” value is “approximately 4.3”. Also, the results for the “% TMV reduction on tobacco” value with TMV (1 μg/ml) and in the series on TMV (10 μg/ml) were 10% and 55%, respectively.
